Where a chain is given by its changes, count along the chain named.
Key:
[1] = target: T1, CcTet-ΔN16 (CcTet-Δ16; CcTet) (Coprinopsis cinerea, UniProt A8P1J0); assay: X-ray crystallography, […] Å; type: binding; details: complex with Mn2+ and 12-bp 5mC-dsDNA; 2 mM NOG in the crystallization mix; 2-oxoglutarate site
T1 construct: gene CC1G_05589; N-terminal 16 residues deleted; His-SUMO1 tag removed by Ulp1; expressed in E. coli BL21(DE3) from pET-SUMO
T1 sequence (A8P1J0 17-430): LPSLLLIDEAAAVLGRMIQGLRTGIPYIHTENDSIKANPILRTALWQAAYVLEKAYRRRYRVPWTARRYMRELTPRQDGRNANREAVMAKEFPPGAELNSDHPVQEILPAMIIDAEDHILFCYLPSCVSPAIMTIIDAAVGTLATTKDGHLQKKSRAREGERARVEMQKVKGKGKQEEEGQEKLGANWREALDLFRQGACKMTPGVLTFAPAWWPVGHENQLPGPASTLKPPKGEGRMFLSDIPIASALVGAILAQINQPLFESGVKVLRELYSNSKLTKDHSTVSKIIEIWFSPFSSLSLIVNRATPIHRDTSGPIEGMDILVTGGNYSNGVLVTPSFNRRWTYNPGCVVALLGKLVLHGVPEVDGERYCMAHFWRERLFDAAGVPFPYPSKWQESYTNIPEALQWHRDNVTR

CcTet-ΔN16 H234A = target: T2, CcTet-ΔN16 H234A (Coprinopsis cinerea, UniProt A8P1J0 17-430, H234A); assay: MST; MST: NT-495 labeled protein, room temperature, 5 min incubation, buffer not stated (protein gel-filtration buffer 20 mM HEPES pH 7.0, 100 mM NaCl, 1 mM DTT). Crystals: 2 mM NOG, 1 mM MnCl2, protein:DNA 1:1.2, 20 mM sodium formate, 10% PEG8000, 277 K; details: protein: recombinant; tags: N-terminal His-Sumo1, removed by Ulp1; blunt
T2 sequence: T1 sequence (A8P1J0 17-430) with H218A

CcTet-ΔN16 R92A = target: T3, CcTet-ΔN16 R92A (Coprinopsis cinerea, UniProt A8P1J0 17-430, R92A); assay: as above; details: protein: recombinant; tags: N-terminal His-Sumo1, removed by Ulp1; blunt
T3 sequence: T1 sequence (A8P1J0 17-430) with R76A

CcTet-ΔN16 R96A = target: T4, CcTet-ΔN16 R96A (Coprinopsis cinerea, UniProt A8P1J0 17-430, R96A); assay: as above; details: protein: recombinant; tags: N-terminal His-Sumo1, removed by Ulp1; blunt
T4 sequence: T1 sequence (A8P1J0 17-430) with R80A

CcTet-ΔN16 = target: T5, CcTet-ΔN16 (Coprinopsis cinerea, UniProt A8P1J0 17-430); assay: X-ray crystallography (2.3 Å); Mn2+, N-oxalylglycine (NOG); MST: NT-495 labeled protein, room temperature, 5 min incubation, buffer not stated (protein gel-filtration buffer 20 mM HEPES pH 7.0, 100 mM NaCl, 1 mM DTT). Crystals: 2 mM NOG, 1 mM MnCl2, protein:DNA 1:1.2, 20 mM sodium formate, 10% PEG8000, 277 K; details: protein: recombinant; tags: N-terminal His-Sumo1, removed by Ulp1; blunt; as printed, T of strand 2 (position 7) lies opposite 5mC6 (mismatch)
T5 sequence: T1 sequence (A8P1J0 17-430)

Molecule: O=C(O)CNC(=O)C(=O)O [N-oxalylglycine]
- X-ray crystallography, 2.3 Å [1]: NOG was stabilized through hydrophilic and hydrophobic interactions with several nearby residues

B1: 19-bp 5mC-dsDNA (dsDNA)
DNA 1: TCTGGAACGGAATTCTTCA
DNA 2: TGAAGAATTCCGTTCCAGA
modifications: 5mC at position 8 of strand 1
- binding result (CcTet-ΔN16 H234A): no binding
- binding result (CcTet-ΔN16 R92A): no binding
- binding result (CcTet-ΔN16 R96A): no binding

B2: 12-bp 5mC-dsDNA (dsDNA)
DNA 1: CGATCCGCTACG
DNA 2: CGTAGCTGATCG
modifications: 5mC at position 6 of strand 1
- binding result (CcTet-ΔN16): binds

Reference: publication PMC11040006, “Molecular basis of an atypical dsDNA 5mC/6mA bifunctional dioxygenase CcTet from Coprinopsis cinerea in catalyzing dsDNA 5mC demethylation” (Nucleic Acids Research, 2024)
